Laboratory results: patent US10450573B2, “Compositions and methods for regulation of gene expression with, and detection of, folinic acid and folates” (The Board of Trustees of the Leland Stanford Junior …, priority 2014, dated 2019)

What was measured:
GFP expression = test: miRNA switch silencing activity on GFP in mammalian cells; format: cell-based; conditions: folinic acid
Description: Ligand-responsive, microRNA (miRNA) switches have been developed that modulate Drosha processing. These switches integrate an aptamer into the basal segments of a miRNA. Internal loop size contained within the basal segments affects Drosha processing and therefore the levels of miRNA-mediated gene silencing. By integrating an aptamer within the basal segments, unbound aptamer can remain relatively unstructured, while ligand binding can sequester nucleotides involved in binding and inhibit Drosha processing.
Aptamer integration into this switch platform requires two integration stems; therefore, aptamer FA8-3 was chosen. Separate studies on using this aptamer in a transmitter-based switch observe that an internal loop within the aptamer could be expanded while retaining ligand binding ability. This loop was expanded to the previously identified optimal loop size and integrated into the miRNA switch that targets GFP. A single copy of the miRNA switch enables up to 2.1-fold change in GFP expression (FIG. 26b); including two copies yields up to 2.6-fold change (FIG. 26c). Additional copies of the switch would be expected to further increase the achievable activation ratio, as would specific use of (6R)-folinic acid.

[1] = Surface plasmon resonance aptamer binding assay, (6R)-folinic acid; conditions: for Selectivity: between (6R)- and (6S)-folinic acid diastereomers
Experimental: (§1) Surface plasmon resonance characterization of aptamer binding properties. Nucleic acid aptamer preparation. RNA aptamers were prepared by PCR amplification of DNA template sequences (Table 4, Integrated DNA Technologies, Coralville, Iowa) using forward and reverse primers Biacore-fwd and Biacore-rev, respectively, followed by transcription of the PCR product using the MEGAshortscript T7 transcription kit (Life Technologies) and purification of the transcription product using the RNA Clean & Concentrator kit (Zymo Research, Irvine, Calif.), according to the manufacturers' instructions. Aptamers were resuspended in selection buffer, denatured at 65° C. for 5 min, and cooled to room temperature directly before use.
(§2) Sensor chip surface generation. Experiments were performed on a Biacore X100 instrument (GE Healthcare) at 25° C. A CM5 sensor chip (GE Healthcare) was equilibrated with HBS-N buffer. The DNA linker strand (5′-AmMC6-[…]) (Integrated DNA Technologies) (SEQ ID NO:133), with an amino modified 6-carbon linker on the 5′ end, was immobilized to the chip surface. The carboxymethylated dextran surface of the CM5 chip was activated for 7 min at a flow rate of 10 μL/min using a 1:1 volume ratio of 0.4 M 1-ethyl-3-(3-dimethylaminopropyl) carbodiimide (GE Healthcare) and 0.1 M N-hydroxysuccinimide (GE Healthcare). A molar ratio of 1:30 of DNA strand to hexadecyltrimethylammonium bromide (Sigma-Aldrich, St. Louis, Mo.) was diluted in 10 mM HEPES buffer (Sigma-Aldrich) to a final concentration of 20 μM and 0.6 mM, respectively, and injected over the activated surface for 10 min at a flow rate of 5 μL/min. Excess activated groups were blocked by an injection of 1 M ethanolamine (GE Healthcare), pH 8.5, for 7 min at a flow rate of 10 μL/min. The immobilization reaction was performed sequentially on both flow cells (FC1, FC2) and yielded approximately 4,000 RU of the DNA strand.
(§3) Aptamer binding assay. The Biacore X100 instrument was primed three times with running buffer prior to all binding assays. For each assay, three startup cycles were performed to stabilize the sensorgram baseline. For each startup cycle, the aptamer (˜40-70 ng/μL, ˜3 μM) was captured onto the sample flow cell (FC2) for 40 s at a flow rate of 5 μL/min. 25 mM NaOH (GE Healthcare) was injected for 30 s at a flow rate of 30 μL/min over both flow cells to regenerate the sensor surface. A dilution series of (6R)- or (6S)-folinic acid (Schircks Laboratories, Jona, Switzerland) was prepared in selection buffer and filtered through a 0.2 μm membrane (Pall Corporation, Port Washington, N.Y.). For each concentration sample, the aptamer was captured onto the sample flow cell (FC2) for 40 s at a flow rate of 5 μL/min, the folinic acid solution was injected over both flow cells at a flow rate of 30 μL/min to monitor target association, and selection buffer was injected over both flow cells at a flow rate of 30 μL/min to monitor target dissociation. Association and dissociation phase lengths used were chosen based on time needed to reach equilibrium. Aptamer and folinic acid were removed from the sensor surface by injecting 25 mM NaOH for 30 s at a flow rate of 30 μL/min over both flow cells.
(§4) Data processing and analysis were performed using Biacore X100 Evaluation Software version 2.0 (GE Healthcare). A double-referencing method was performed to process all datasets. Data from the sample flow cell (FC2) were referenced first by subtracting data from the reference flow cell (FC1) to correct for bulk refractive index changes, nonspecific binding, injection noise, matrix effects, and baseline drift. Reference-subtracted data (FC2−FC1) were double-referenced with a blank injection of running buffer to account for any systematic drift over the course of the injection. Double-referenced data were fit to a 1:1 binding model for kinetic analysis or steady-state affinity model for thermodynamic analysis. […]

[2] = SPR screen of truncated or mutated aptamers for folinic acid binding (qualitative)
Experimental: Full length sequences were amplified off of sequencing PCR products using primers N70-fwd-short and Biacore-N70-rev to append a poly(A) tail. Truncated or mutated sequences were synthesized by Integrated DNA Technologies or the Protein and Nucleic Acid facility (Stanford, Calif.).
as §1
Sensor chip surface generation. Experiments were performed on a Biacore X100 instrument (GE Healthcare) at 25° C. A CM5 sensor chip (GE Healthcare) was equilibrated with HBS-N buffer. The DNA linker strand (5′-AmMC6-[…]) (Integrated DNA Technologies) (SEQ ID NO:133), with an amino modified 6-carbon linker on the 5′ end, was immobilized to the chip surface. […]

[3] = Surface plasmon resonance aptamer binding assay, (6S)-folinic acid; conditions: SPR, 25° C., selection buffer pH 7.4, 5 mM MgCl2
Experimental: as §1, §2, §3, §4

[4] = SPR binding to (6R,S)-5-formyl-5,6,7,8-tetrahydropteroic acid; conditions: ligand is mixture of (6R) and (6S) diastereomers
[5] = SPR binding to (6R,S)-5-methyl-5,6,7,8-tetrahydrofolic acid; conditions: ligand is mixture of (6R) and (6S) diastereomers, read-out: KD, (6R,S)-5-methyl-THF
[6] = SPR equilibrium binding to folate derivative (6R)-tetrahydrobiopterin; conditions: N.D. = non-detectable levels of binding, read-out: KD, (6R)-Tetrahydrobiopterin (THB)
[7] = SPR, 25° C., selection buffer pH 7.4, 5 mM MgCl2
[8] = SPR, 1:1 binding model, 25° C., selection buffer pH 7.4, 5 mM MgCl2

Molecule	change in GFP expression (GFP expression; single copy of the miRNA switch)	change in GFP expression (GFP expression; two copies of the miRNA switch)	Kd [1, 7] [µM]	Selectivity [1]	folinic acid binding (qualitative) [2]	ka, (6S)-Folinic Acid ([3]; 1:1 binding model) [M⁻¹ s⁻¹]	kd, (6S)-Folinic Acid ([3]; 1:1 binding model) [s⁻¹]	Kd [3] [µM]	ka, (6R)-Folinic Acid [1, 8] [M⁻¹ s⁻¹]	kd, (6R)-Folinic Acid [1, 8] [s⁻¹]	ka, (6R,S)-5-formyl-THPteroic Acid [4] [M⁻¹ s⁻¹]	kd, (6R,S)-5-formyl-THPteroic Acid [4] [s⁻¹]	Kd ([4]; read-out: KD, (6R,S)-5-formyl-THPteroic Acid) [µM]	Kd [5] [µM]	Kd [6] [µM]
miRNA switch: folinic acid-responsive miRNA switch with aptamer FA8-3 that targets GFP, SEQ ID NO: 57 (nucleic acid, Synthetic nucleic acid) AATAACCGGTGCGATCGCGAACGGGTCCTCACTACCCCTCGAAATCACGAGGGAGACGAGATAAGAGCGACGGCGGAGCGAGCACAAGCTGGAGTACAACTATAGTGAAGCCACAGATGTATAGTTGTACTCCAGCTTGTGCCCGCCTTGCCAACCATAACGTCTGGTCACGACCGTAGTAAGGGCCCGTTTTTAATTAAATCGATTATT	up to 2.1 fold	up to 2.6 fold													
tFA8-14: truncated (6S)-FA specific RNA aptamer, SEQ ID NO: 25 (nucleic acid, unmodified RNA) CCGCGCAAGUGCAUUAACGGUGACACCGAAAGCUGGAAAGCCUGACAUCGAACGCAAAAGGCUGCGUGG			10200	71,100	maintains binding	89200	0.0128	0.144							
tFA8-3: truncated (6R)-FA specific RNA aptamer, SEQ ID NO: 19 (nucleic acid, unmodified RNA) UUUGCCAACGUCUGGUCACGACCGUAGUACACUACCCCUCGAAAUCACGAGGGAGACGAGAUAGGCGGA			0.0473	606				28.6	459000	0.0217	305000	0.0292	0.0957	0.158	1.6
